Results as given in the RNAGym collection of RNA variant scans (doi:10.7554/elife.80360).

B1: HDV Ribozyme (parent)
chain: GGCCGGCAUGGUCCCAGCCUCCUCGCUGGCGCCGGCUGGGCAACAUUCCGAGGGGACCGUCCCCUCGGUAAUGGCGAAUGGGACCCA

Variants of: B1
Experiment: self-cleavage, relative activity (ratio to wild type); higher = more cleavage; co-transcriptional

Variant	self-cleavage
G35U C86U	0.464
G35U G38C	0.0536
G35U G38U	0
G35U G39A	0.0906
G35U G54A	0.499
G35U G59U	0.53
G35U G67A	0.506
G35U G67C	0.41
G35U G68U	0.309
G35U G73C	0.185
G35U G74C	0.272
G35U G76C	0.62
G35U G76U	0.595
G35U G80U	0.223
G35U G81A	0.108
G35U G81C	0.133
G35U G81U	0.156
G35U U47C	0.189
G35U U60G	0.285
G35U U65C	0.434
G35U U72A	0.172
C36A A42C	0.0583
C36A A42G	0.113
C36A A45U	0.0475

Variant	self-cleavage
C36A A56U	0.229
C36A A70G	0.119
C36A A70U	0.163
C36A A83G	0.159
C36A C48A	0.259
C36A C49G	0.0297
C36A C66A	0.151
C36A C75A	0.175
C36A C84U	0.163
C36A G39A	0.113
C36A G55C	0.196
C36A G55U	0.124
C36A G59U	0.138
C36A G68C	0.235
C36A G68U	0.157
C36A G76C	0.241
C36A G80C	0.178
C36A G81U	0.0523
C36A G82U	0.0839
C36A U46C	0.166
C36A U60G	0.178
C36A U65G	0.394
C36A U72A	0.277
C36A U72C	0.0405

Variant	self-cleavage
C36A U72G	0.0978
C36G A45U	0.0791
C36G A51G	0.151
C36G A70G	0.147
C36G A71C	0.0475
C36G A71G	0.138
C36G A77C	0
C36G A87C	0.146
C36G C41A	0.248
C36G C44U	0.0426
C36G C49A	0.138
C36G C57U	0.128
C36G C61G	0.0386
C36G C61U	0.121
C36G C62A	0.0791
C36G C66A	0.162
C36G C85A	0.251
C36G C85G	0.161
C36G C86U	0.0437
C36G G38A	0.143
C36G G39A	0.0326
C36G G50U	0.101
C36G G52A	0.271
C36G G54A	0.0831

Variant	self-cleavage
C36G G54C	0.243
C36G G55A	0.117
C36G G59C	0.0755
C36G G67C	0.148
C36G G68U	0.0615
C36G G74C	0.0723
C36G G74U	0.111
C36G G76A	0.162
C36G G76U	0.277
C36G U37G	0.213
C36G U46C	0
C36G U47C	0.128
C36G U60G	0.0723
C36G U65G	0.244
C36U A42G	0.122
C36U A45G	0.522
C36U A56U	0.845
C36U A70U	0.702
C36U A71U	0.471
C36U A87G	0.674
C36U C41A	0.683
C36U C41G	0.45
C36U C44G	0.231
C36U C48A	0.623

Variant	self-cleavage
C36U C49G	0.607
C36U C49U	0.743
C36U C57G	0.79
C36U C64G	0.606
C36U C66G	0.767
C36U C75A	0.203
C36U G38A	0.191
C36U G39C	0.119
C36U G40C	0.0959
C36U G50A	0.673
C36U G50C	0.612
C36U G53C	0.815
C36U G54C	0.872
C36U G55U	0.8
C36U G59C	0.923
C36U G68U	0.786
C36U G73A	0.428
C36U G73U	0.0692
C36U G74A	0.205
C36U G74C	0.253
C36U G76A	0.697
C36U G80A	0.0923
C36U G80C	0.12
C36U U37A	0.0978

Variant	self-cleavage
C36U U37G	0.166
C36U U46G	0.504
C36U U47A	0.481
C36U U69C	0.801
U37A	0.216
U37A A43C	0.0723
U37A A43G	0.0554
U37A A43U	0.0437
U37A A45C	0.0707
U37A A45U	0.175
U37A A51U	0
U37A A70G	0.214
U37A A83C	0.0378
U37A A83G	0.115
U37A A83U	0.104
U37A C41G	0.0723
U37A C44A	0.364
U37A C44U	0.0386
U37A C57G	0.213
U37A C61G	0.151
U37A C61U	0.277
U37A C64A	0.0723
U37A C84U	0.116
U37A C86G	0.0875

Variant	self-cleavage
U37A G40A	0.305
U37A G50A	0.0361
U37A G55A	0.283
U37A G59U	0.181
U37A G68U	0.0845
U37A G74C	0.212
U37A G76A	0.172
U37A G76C	0.203
U37A G80C	0.163
U37A G81A	0.166
U37A G82U	0.166
U37A U47C	0.289
U37A U60G	0.192
U37A U65A	0.122
U37A U72G	0.302
U37A U79A	0.246
U37C	1.03
U37C A42U	0.295
U37C A43U	0.172
U37C A51G	0.966
U37C A70C	1.04
U37C A78C	0.196
U37C A78G	0.475
